Measured values: patent publication US20150203579A1 (Regeneron, published 2015)
Read-outs that look alike come from different tables or passages of the source.

Experiments:
[1] = molecular target: T1, PD-1 chimera: extracellular domain of human PD-1 with trans-membrane and cytoplasmic domains of human CD300a, … (human, UniProt Q9UGN4 181-299, limits assumed); test: cell-based or functional assay
[2] = molecular target: T2, full length human PD-1 on HEK293/hPD-1 cells (human, UniProt Q15116 25-288); test: FACS dose response, HEK293/hPD-1 cells
[3] = molecular target: PD-1 chimera: extracellular domain of human PD-1 with trans-membrane and cytoplasmic domains of human CD300a, … (human, UniProt Q9UGN4 181-299, limits assumed); test: cell-based or functional assay; remark: listed apart in the source
[4] = molecular target: T3, recombinant human PD-1 expressed with a C-terminal myc-myc-hexahistidine tag (human); test: SPR (Biacore), mAb captured, hPD-1-MMH injected, 25 C;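 also: rate constants obtained by fitting sensorgrams to a 1:1 binding model, KD derived as kd/ka and half-life as ln2/(60·kd) in minutes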
T3 construct: also called hPD-1-MMH; human PD-1-MMH

[5] = molecular target: T4, human PD-1 dimer (human PD-1-mFc or human PD-1-hFc) (human, UniProt Q15116 25-170); test: SPR, mAb captured, 37C;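 also: Real-time Biacore biosensor, PD-1 dimer flowed over anti-PD-1 antibody surface, rate constants fitted to a 1:1 model, KD derived as kd/ka and t½ as ln2/(60·kd)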
T4 construct: also called hPD-1-mFc; hPD1-hFc

[6] = molecular target: T4, human PD-1 dimer (human PD-1-mFc or …); test: SPR, mAb captured, 25C;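 also: surface plasmon resonance on Biacore, PD-1 flowed over captured anti-PD-1 antibodies, rate constants from a 1:1 binding model fit, KD taken as kd/ka and t½ as ln2/(60·kd)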
[7] = molecular target: T5, recombinant cynomolgus monkey PD-1 expressed with a C-terminal myc-myc-hexahistidine tag (cynomolgus monkey (Macaca fascicularis)); test: SPR, mAb captured, 25C; 25 C
T5 construct: monomeric; also called MfPD-1-MMH
T5 chain: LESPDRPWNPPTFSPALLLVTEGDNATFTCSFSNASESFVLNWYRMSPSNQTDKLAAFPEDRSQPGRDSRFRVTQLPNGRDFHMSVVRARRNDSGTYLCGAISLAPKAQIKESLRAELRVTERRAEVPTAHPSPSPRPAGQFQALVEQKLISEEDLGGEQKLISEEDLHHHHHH

[8] = molecular target: T2, full length human PD-1 on HEK293/hPD-1 …; test: FACS, 100 nM mAb, HEK293/hPD-1 cells;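 also: antibodies incubated with cells for 15-30 min on ice, bound antibody detected through a secondary F(ab′)2 by flow cytometry, with parental HEK293 cells tested in parallel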
[9] = molecular target: T6, recombinant human PD-1 dimer expressed with a C-terminal mouse IgG2a Fc tag (human); test: BLI Octet: 100 nM hPD-1-mFc + 500 nM mAb to captured hPD-L1-hFc
T6 construct: also called hPD-1-mFc

[10] = molecular target: T1, PD-1 chimera: extracellular domain of …; test: cell-based or functional assay; remark: listed apart in the source
[11] = molecular target: T2, full length human PD-1 on HEK293/hPD-1 …; test: FACS dose response, HEK293/hPD-1 cells; No EC50 determined
[12] = molecular target: T2, full length human PD-1 on HEK293/hPD-1 …; test: FACS, 100 nM mAb
[13] = molecular target: T2, full length human PD-1 on HEK293/hPD-1 …; test: FACS dose response, HEK293/hPD-1 cells; remark: listed apart in the source
[14] = molecular target: T7, dimeric biotinylated human PD-1 protein with a C-terminal human Fc tag (human, biotinylated (sites not given)); test: competition ELISA: 200 pM biot-hPD-1-hFc to coated hPD-L1-mFc; * below theoretical bottom 1.0E-10 M
T7 construct: also called biot-hPD-1-hFc

[15] = molecular target: T6, recombinant human PD-1 dimer expressed …; test: competition ELISA: 100 pM hPD-1-mFc to coated hPD-L2-hFc
[16] = molecular target: T7, dimeric biotinylated human PD-1 protein …; test: competition ELISA: 200 pM biot-hPD-1-hFc to coated hPD-L1-mFc
[17] = molecular target: T6, recombinant human PD-1 dimer expressed …; test: competition ELISA: 1.5 nM hPD-1-mFc to coated hPD-L1-hFc; * below theoretical bottom 7.5E-10 M
[18] = molecular target: T6, recombinant human PD-1 dimer expressed …; test: competition ELISA: 1.5 nM hPD-1-mFc to coated hPD-L1-hFc
monkey PD-1 with mFc [19] = molecular target: T8, monkey PD-1 with mFc (monkey); test: SPR, captured mAb, 25 C;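 also: purified anti-PD-1 antibodies tested on Biacore 4000 or T200 instruments, rate constants obtained via 1:1 binding model fit, with KD as kd/ka and half-life as ln2/(60·kd)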
T8 construct: also called monkey PD-1-mFc; monkey PD-1 dimer
T8 chain: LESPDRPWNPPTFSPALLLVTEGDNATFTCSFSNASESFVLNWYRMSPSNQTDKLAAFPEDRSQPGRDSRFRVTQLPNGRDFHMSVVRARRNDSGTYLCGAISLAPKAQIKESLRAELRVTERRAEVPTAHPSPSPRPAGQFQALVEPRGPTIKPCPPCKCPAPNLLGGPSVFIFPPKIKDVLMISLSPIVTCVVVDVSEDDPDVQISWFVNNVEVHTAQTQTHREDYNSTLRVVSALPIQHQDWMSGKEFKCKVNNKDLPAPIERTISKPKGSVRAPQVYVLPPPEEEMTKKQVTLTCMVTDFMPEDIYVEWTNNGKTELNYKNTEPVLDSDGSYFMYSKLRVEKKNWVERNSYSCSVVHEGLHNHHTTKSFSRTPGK

monkey PD-1 with mFc [20] = molecular target: T8, monkey PD-1 with mFc; test: SPR, captured mAb, 37 C;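 also: Real-time Biacore surface plasmon resonance biosensor readout of PD-1 reagent binding to purified anti-PD-1 monoclonal antibodies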
[21] = molecular target: T9, recombinant human PD-L1 expressed with a C-terminal mouse IgG2a Fc tag (human); test: SPR Biacore 3000: 500 nM mAb alone (no hPD-1.hFc) over captured hPD-L1.mFc surface, control
T9 construct: also called hPD-L1-mFc; hPD-L1.mFc

[22] = molecular target: T10, recombinant human PD-1 expressed with a C-terminal human IgG1 Fc tag (human); test: SPR Biacore 3000: 100 nM hPD-1.hFc + 500 nM mAb to captured hPD-L1.mFc;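 also: inhibition study with anti-PD-1 mAbs, SPR responses tracked in real time and read at the close of each step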
T10 construct: also called hPD-1-hFc; hPD1-hFc

B1: H4H9048P2 (antibody, human IgG4 S228P, kappa, V domains shown)
VH: QVQLVQSGAEVKRPGSSVKVSCKVSGVTFRNFAIIWVRQAPGQGLEWMGGIIPFFSAANYAQSFQGRVTITPDESTSTAFMELASLRSEDTAVYYCAREGERGHTYGFDYWGQGTLVTVSS
VL: not shown
notes: human IgG4 Fc
Emax mean [%] @ 100 nM [1]: 134% | EC50 [2]: 1.6 nM | Max Geom. Mean MFI @ 100 nM [2]: 39800 MFI

B2: H4H9008P (antibody, human IgG4 S228P, kappa, V domains shown)
VH: EVQLVESGGGLVRPGGSLRLSCAASGFTFSTYAMAWVRQTPGKGLEGVSAIGGSGDSTYYVDSVKGRFTISRDNSKSTLFLQMNSLRAEDTAVYYCVKVRNYDGSFDIWGQGTMVTVSS
VL: not shown
Emax, AP1-Luc signal at 100 nM antibody (% of signal without anti-PD-1 antibody) [3]: 150%

B3: H4xH9119P2 (antibody, human IgG4, V domains shown)
VH: EVQLVESGGGLVQPGRSLRLSCAASGFTFEDYAMHWVRQAPGKGLEWVSGIGWSNVKIGYADSVKGRFTISRDNVRNSLYLQMNSLRTEDTAFYYCVKAYTSMLTLYFDYWGQGTLVTVSS
VL: not shown
notes: H4xH: modified human IgG4 Fc
Emax, AP1-Luc signal at 100 nM antibody (% of signal without anti-PD-1 antibody) [3]: 163% | Kd [4]: 15.6 nM | koff [4]: 0.00122 s⁻¹ | kon [4]: 78400 M⁻¹ s⁻¹ | t½ [4]: 9.5 min

B4: H4H9057P2 (antibody, human IgG4, V domains shown)
VH: EVQLVESGGGLVQSGRSLRLSCAASGFTFDDYAMHWVRQPPGKGLEWVSGINWNRGRTGYADSVKGRFTISRDNAKNSLYLQMNDLRVEDTALYYCAKAEQWLDEGYFDYWGQGTLVTVSS
VL: not shown
notes: Fully human; H4H prefix (human IgG4 Fc)
Kd [5]: 9.07 nM | koff [5]: 0.00211 s⁻¹ | kon [5]: 233000 M⁻¹ s⁻¹ | t½ [5]: 5 min | Kd [6]: 1.75 nM | koff [6]: 0.000177 s⁻¹ | kon [6]: 101000 M⁻¹ s⁻¹ | t½ [6]: 65 min | Kd [7]: 551 nM | koff [7]: 0.0191 s⁻¹ | kon [7]: 34600 M⁻¹ s⁻¹ | t½ [7]: 0.6 min

B5: H2aM7791N (antibody, V domains shown)
VH: QMQLQQWGAGLLKPSETLSLTCVVYGGSLNGYYWSWIRQSPGKGLEWIGEIDHSGSTNYNPSLKNRVTMSVDTSKIQFSLKLTSVTVADTAVYYCAREGLLPFDYWGQGTLVTVSS
VL: EIVLTQSPGTLSLSPGERVTLSCRASQSVYSNYLAWYQQNPGQAPRLLIYAASNRATGIPDRFSGSGSGTDFTLTISRLEPEDFAVYYCHQYATSPWTFGQGTKVEIK
notes: human variable regions, mouse IgG2a Fc; also called H2M7791N
MFI [8]: 4950 MFI | % Blocking [9]: -229% | binding of the mixture (nm) [9]: 0.23 nm | Emax mean [%] @ 100 nM [10]: 103% | Max Geom. Mean MFI @ 100 nM [11]: 1400 MFI | ratio of MFI HEK293/hPD-1 to HEK293 parental cells [12]: 18

B6: H2aM7798N (antibody, V domains shown)
VH: EVQLLESGGVLVQPGGSLRLSCAASGFTFSNFGMTWVRQAPGKGLEWVSGISGGGRDTYFADSVKGRFTISRDNSKNTLYLQMNSLKGEDTAVYYCVKWGNIYFDYWGQGTLVTVSS
VL: DIQMTQSPSSLSASVGDSITITCRASLSINTFLNWYQQKPGKAPNLLIYAASSLHGGVPSRFSGSGSGTDFTLTIRTLQPEDFATYYCQQSSNTPFTFGPGTVVDFR
notes: human variable regions, mouse IgG2a Fc; also called H2M7798N
EC50 [13]: 0.0698 nM | Max Geom. Mean MFI @ 100 nM [13]: 20900 MFI | MFI [8]: 23400 MFI | IC50 [14]: 0.073 nM | % Blocking [9]: 86% | binding of the mixture (nm) [9]: 0.01 nm | % blocking at 100 nM antibody [15]: 100% | IC50 [15]: 0.13 nM | % blocking at 50 nM antibody [16]: 100% | Concentration (M) of Antibody at 150% activation [10]: 7.99e-10 M | Emax mean [%] @ 100 nM [10]: 239% | IC50 [17]: 0.68 nM | % blocking at 200 nM antibody [18]: 93% | ratio of MFI HEK293/hPD-1 to HEK293 parental cells [12]: 78.1

B7: H4H7798N (antibody, human IgG4 S228P, kappa, V domains shown)
VH: B6 VH
VL: DIQMTQSPSSLSASVGDSITITCRASLSINTFLNWYQQKPGKAPNLLIYAASSLHGGVPSRFSGSGSGTDFTLTIRTLQPEDFATYYCQQSSNTPFTFGPGTVVDFRR
notes: human IgG4 Fc
100 nM Monkey PD-1-mFc Bound (RU) (monkey PD-1 with mFc [19]): 93 RU | Kd (monkey PD-1 with mFc [19]): 0.137 nM | koff (monkey PD-1 with mFc [19]): 6.14e-05 s⁻¹ | kon (monkey PD-1 with mFc [19]): 449000 M⁻¹ s⁻¹ | t1/2 (monkey PD-1 with mFc [19]): 188 min | 100 nM Monkey PD-1-mFc Bound (RU) (monkey PD-1 with mFc [20]): 88 RU | Kd (monkey PD-1 with mFc [20]): 0.202 nM | koff (monkey PD-1 with mFc [20]): 0.000127 s⁻¹ | kon (monkey PD-1 with mFc [20]): 630000 M⁻¹ s⁻¹ | t1/2 (monkey PD-1 with mFc [20]): 91 min | 500 nM of anti-PD-1 monoclonal antibody (RU) [21]: -6 RU | Emax mean [%] @ 100 nM [1]: 343% | Concentration (M) of Antibody at 150% activation [10]: 1.54e-09 M | Emax mean [%] @ 100 nM [10]: 202% | % Blocking [22]: 106% | binding of the mixture (RU) [22]: -6 RU | EC50 [2]: 0.509 nM | Max Geom. Mean MFI @ 100 nM [2]: 20300 MFI

B8: H2aM7795N (antibody, V domains shown)
VH: EVQVVESGGGLVEPGRSLRLSCKASGFTFDDYAMHWVRQTPGKALEWVSGINWSGNNIGYADSVKGRFTISKDDAKNSLYLQMNSLRPEDTALYYCTKDISITGTLDAFDVWGQGTMVTVSS
VL: DIQMTQSPISVSASVGDRVTITCRASQGISNWLAWYQQKPGIAPKLLIYSASSLQSGVPSRFRGSGSGTDFTLTIGSLQPEDFATYYCQQAHSFPLTFGGGTKVEIK
notes: human variable regions, mouse IgG2a Fc; also called H2M7795N
MFI [8]: 817 MFI | % Blocking [9]: 114% | binding of the mixture (nm) [9]: -0.01 nm | Emax mean [%] @ 100 nM [10]: 109% | Max Geom. Mean MFI @ 100 nM [11]: 624 MFI | ratio of MFI HEK293/hPD-1 to HEK293 parental cells [12]: 2.8
